Laboratory results as given in PMC7949025, “Biophysical characterization of the ETV6 PNT domain polymerization interfaces” (The Journal of Biological Chemistry, 2021).
Positions count from the first letter of the chain named. In names and notes the source's numbering stands. Values belong to the binder of their own block, whether it stands above or below them.

Assays:
[1] = target: T1, biotinylated V112E-PNT domain (ETV6 residues 43-135, V112E, with Avitag) (human, UniProt P41212 43-135, V112E, biotin on the Avitag (~50 to 95% biotinylated)); experiment: SPR; biotinylated V112E-PNT domain ligand captured on streptavidin Sensor Chip SA, PNT domain analytes flowed; Biacore X100, 25 °C, HBS-EP+ (10 mM HEPES, 150 mM NaCl, 3 mM EDTA, 0.05% v/v Tween-20, pH 7.4); analyte 0.2-60 nM, re-run at 20-6000 nM if KD > 60 nM; details: both partners purified
T1 construct: ETV6, human, residues 43-135 of V112E ETV6; also called biotinylated V112E-PNT domain ligand; V112E-PNT domain ligand; source: E. coli BL21 (λDE3) co-transformed with pET21a-BirA, purified (Ni-NTA, thrombin cleavage); not shown: His6, N-terminal, cleaved; Avitag, N-terminal, kept
T1 sequence (looked up): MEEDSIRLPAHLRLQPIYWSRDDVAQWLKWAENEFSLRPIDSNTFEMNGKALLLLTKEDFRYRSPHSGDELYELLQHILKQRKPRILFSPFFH
In short: (§1)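 Association and dissociation rate constants and the equilibrium dissociation constant were obtained with the kinetics/affinity wizard of the Biacore software. For these measurements, Avitag-biotinylated ETV6 PNT domain (residues 43-135) at 50 μg/ml in HBS-EP+ was captured on a streptavidin Sensor Chip SA in a Biacore X100 at 25 °C. Analytes were flowed at 0.2, 2, 20, 40 and 60 nM, with weaker binders re-run at 20-6000 nM.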

[2] = target: T2, biotinylated A93D-PNT domain (ETV6 residues 43-135, A93D, with Avitag) (human, UniProt P41212 43-135, A93D, biotin on the Avitag (~50 to 95% biotinylated)); experiment: SPR; biotinylated A93D-PNT domain ligand captured on streptavidin Sensor Chip SA, PNT domain analytes flowed; Biacore X100, 25 °C, HBS-EP+ (10 mM HEPES, 150 mM NaCl, 3 mM EDTA, 0.05% v/v Tween-20, pH 7.4); analyte 0.2-60 nM, re-run at 20-6000 nM if KD > 60 nM; details: both partners purified
T2 construct: ETV6, human, residues 43-135; made from the V112E construct by introducing A93D and E112V; also called biotinylated A93D-PNT domain ligand; A93D-PNT domain ligand; source: E. coli BL21 (λDE3) co-transformed with pET21a-BirA, purified (Ni-NTA, thrombin cleavage); not shown: His6, N-terminal, cleaved; Avitag, N-terminal, kept
T2 sequence (looked up): T1 sequence (looked up) with A51D, E70V
In short: as §1

Kd [2]: 21 nM
koff [2]: 0.015 s⁻¹
kon [2]: 730000 M⁻¹ s⁻¹
B3: Y104A-V112E-PNT domain (domain or fragment, human, UniProt P41212 40-125, looked up)
chain: ALRMEEDSIRLPAHLRLQPIYWSRDDVAQWLKWAENEFSLRPIDSNTFEMNGKALLLLTKEDFRARSPHSGDELYELLQHILKQRK
notes: ETV6 PNT domain, human; source: E. coli BL21 (λDE3), purified (Ni-NTA, thrombin cleavage); not shown: His6, N-terminal, cleaved

Kd [1]: 13 nM
koff [1]: 0.0034 s⁻¹
kon [1]: 270000 M⁻¹ s⁻¹
B8: H119A-A93D-PNT domain (domain or fragment, human, UniProt P41212 40-125, looked up)
chain: B3 chain with A54D, A65Y, E73V, H80A
notes: as for B3

Kd [2]: 5.8 nM
koff [2]: 0.0025 s⁻¹
kon [2]: 430000 M⁻¹ s⁻¹
B11: I59A-V112E-PNT domain (domain or fragment, human, UniProt P41212 40-125, looked up)
chain: B3 chain with I20A, A65Y
notes: as for B3

Kd [1]: 5.4 nM
koff [1]: 0.0014 s⁻¹
kon [1]: 260000 M⁻¹ s⁻¹
B12: H108A-A93D-PNT domain (domain or fragment, human, UniProt P41212 40-125, looked up)
chain: B3 chain with A54D, A65Y, H69A, E73V
notes: as for B3

Kd [1]: 5 nM
koff [1]: 0.0015 s⁻¹
kon [1]: 310000 M⁻¹ s⁻¹
B13: E100A-A93D-PNT domain (domain or fragment, human, UniProt P41212 40-125, looked up)
chain: B3 chain with A54D, E61A, A65Y, E73V
notes: as for B3

Kd [1]: 11 nM
koff [1]: 0.0025 s⁻¹
kon [1]: 230000 M⁻¹ s⁻¹
B17: E115A-A93D-PNT domain (domain or fragment, human, UniProt P41212 40-125, looked up)
chain: B3 chain with A54D, A65Y, E73V, E76A
notes: as for B3

Kd [1]: 550 nM
koff [1]: 0.011 s⁻¹
kon [1]: 20000 M⁻¹ s⁻¹
B18: V112A-A93D-PNT domain (domain or fragment, human, UniProt P41212 40-125, looked up)
chain: B3 chain with A54D, A65Y, E73A
notes: as for B3

Kd [1]: 32 nM
koff [1]: 0.0029 s⁻¹
kon [1]: 91000 M⁻¹ s⁻¹
B19: R80A-A93D-PNT domain (domain or fragment, human, UniProt P41212 40-125, looked up)
chain: B3 chain with R41A, A54D, A65Y, E73V
notes: as for B3

Kd [2]: 2340 nM
koff [2]: 0.0054 s⁻¹
kon [2]: 2300 M⁻¹ s⁻¹
B20: R105A-V112E-PNT domain (domain or fragment, human, UniProt P41212 40-125, looked up)
chain: B3 chain with A65Y, R66A
notes: as for B3

Kd [2]: 1000 nM
koff [2]: 0.0095 s⁻¹
kon [2]: 9500 M⁻¹ s⁻¹
B31: L96A-V112E-PNT domain (domain or fragment, human, UniProt P41212 40-125, looked up)
chain: B3 chain with L57A, A65Y
notes: as for B3

Kd [2]: 7 nM
koff [2]: 0.0035 s⁻¹
kon [2]: 500000 M⁻¹ s⁻¹
B32: E100A-V112E-PNT domain (domain or fragment, human, UniProt P41212 40-125, looked up)
chain: B3 chain with E61A, A65Y
notes: as for B3

The remaining lines, values behind:

B1: A93D-PNT domain (ETV6 residues 40-125 with the A93D mutation) (domain or fragment, human, UniProt P41212 40-125, looked up)
chain: B3 chain with A54D, A65Y, E73V
notes: ETV6 PNT domain fragment, human, residues 40-125; expressed as residues 1-125 and cut by thrombin at the internal site V37-P38-R39/A40; 15N- or 13C/15N-labelled or unlabelled in NMR; also called A93D-PNT domain analyte; source: E. coli BL21 (λDE3), purified (Ni-NTA, thrombin cleavage, Superdex S75; size exclusion omitted for SPR); not shown: His6, N-terminal, cleaved
Kd [1]: 7.5 nM
koff [1]: 0.0015 s⁻¹
kon [1]: 200000 M⁻¹ s⁻¹

B2: V112E-PNT domain (ETV6 residues 40-125 with the V112E mutation) (domain or fragment, human, UniProt P41212 40-125, looked up)
chain: B3 chain with A65Y
notes: ETV6 PNT domain fragment, human, residues 40-125; expressed as residues 1-125 and cut by thrombin at the internal site V37-P38-R39/A40; 15N- or 13C/15N-labelled or unlabelled in NMR; also called V112E-PNT domain analyte; source: E. coli BL21 (λDE3), purified (Ni-NTA, thrombin cleavage, Superdex S75; size exclusion omitted for SPR); not shown: His6, N-terminal, cleaved
Kd [2]: 5.1 nM
koff [2]: 0.0023 s⁻¹
kon [2]: 440000 M⁻¹ s⁻¹

B4: T98A-V112E-PNT domain (domain or fragment, human, UniProt P41212 40-125, looked up)
chain: B3 chain with T59A, A65Y
notes: as for B3
Kd [2]: 8.8 nM
koff [2]: 0.0054 s⁻¹
kon [2]: 620000 M⁻¹ s⁻¹

B5: I48A-A93D-PNT domain (domain or fragment, human, UniProt P41212 40-125, looked up)
chain: B3 chain with I9A, A54D, A65Y, E73V
notes: as for B3
Kd [1]: 12 nM
koff [1]: 0.004 s⁻¹
kon [1]: 340000 M⁻¹ s⁻¹

B6: D101A-V112E-PNT domain (domain or fragment, human, UniProt P41212 40-125, looked up)
chain: B3 chain with D62A, A65Y
notes: as for B3
Kd [2]: 400 nM
koff [2]: 0.0025 s⁻¹
kon [2]: 6300 M⁻¹ s⁻¹

B7: K99A-A93D-PNT domain (domain or fragment, human, UniProt P41212 40-125, looked up)
chain: B3 chain with A54D, K60A, A65Y, E73V
notes: as for B3
Kd [1]: 930 nM
koff [1]: 0.0023 s⁻¹
kon [1]: 2400 M⁻¹ s⁻¹

B9: F77A-A93D-PNT domain (domain or fragment, human, UniProt P41212 40-125, looked up)
chain: B3 chain with F38A, A54D, A65Y, E73V
notes: as for B3
Kd [1]: 450 nM
koff [1]: 0.015 s⁻¹
kon [1]: 34000 M⁻¹ s⁻¹

B10: R63A-V112E-PNT domain (domain or fragment, human, UniProt P41212 40-125, looked up)
chain: B3 chain with R24A, A65Y
notes: as for B3
Kd [2]: 15 nM
koff [2]: 0.0054 s⁻¹
kon [2]: 360000 M⁻¹ s⁻¹

B14: S47A-A93D-PNT domain (domain or fragment, human, UniProt P41212 40-125, looked up)
chain: B3 chain with S8A, A54D, A65Y, E73V
notes: as for B3
Kd [1]: 6.9 nM
koff [1]: 0.0014 s⁻¹
kon [1]: 210000 M⁻¹ s⁻¹

B15: Y114A-A93D-PNT domain (domain or fragment, human, UniProt P41212 40-125, looked up)
chain: B3 chain with A54D, A65Y, E73V, Y75A
notes: as for B3
Kd [1]: 130 nM
koff [1]: 0.0045 s⁻¹
kon [1]: 35000 M⁻¹ s⁻¹

B16: N90A-V112E-PNT domain (domain or fragment, human, UniProt P41212 40-125, looked up)
chain: B3 chain with N51A, A65Y
notes: ETV6 PNT domain, human; gene purchased commercially (Biomatik); source: E. coli BL21 (λDE3), purified (Ni-NTA, thrombin cleavage); not shown: His6, N-terminal, cleaved
Kd [2]: 480 nM
koff [2]: 0.037 s⁻¹
kon [2]: 78000 M⁻¹ s⁻¹

B21: N85A-V112E-PNT domain (domain or fragment, human, UniProt P41212 40-125, looked up)
chain: B3 chain with N46A, A65Y
notes: as for B3
Kd [2]: 9.9 nM
koff [2]: 0.0034 s⁻¹
kon [2]: 350000 M⁻¹ s⁻¹

B22: E76A-A93D-PNT domain (domain or fragment, human, UniProt P41212 40-125, looked up)
chain: B3 chain with E37A, A54D, A65Y, E73V
notes: as for B3
Kd [1]: 9.9 nM
koff [1]: 0.0062 s⁻¹
kon [1]: 620000 M⁻¹ s⁻¹

B23: E88A-V112E-PNT domain (domain or fragment, human, UniProt P41212 40-125, looked up)
chain: B3 chain with E49A, A65Y
notes: as for B3
Kd [2]: 8.1 nM
koff [2]: 0.004 s⁻¹
kon [2]: 500000 M⁻¹ s⁻¹

B24: P107A-A93D-PNT domain (domain or fragment, human, UniProt P41212 40-125, looked up)
chain: B3 chain with A54D, A65Y, P68A, E73V
notes: as for B3
Kd [1]: 8.1 nM
koff [1]: 0.0021 s⁻¹
kon [1]: 260000 M⁻¹ s⁻¹

B25: S78A-A93D-PNT domain (domain or fragment, human, UniProt P41212 40-125, looked up)
chain: B3 chain with S39A, A54D, A65Y, E73V
notes: as for B3
Kd [1]: 3.3 nM
koff [1]: 0.0093 s⁻¹
kon [1]: 2.8e+06 M⁻¹ s⁻¹

B26: R103A-A93D-PNT domain (domain or fragment, human, UniProt P41212 40-125, looked up)
chain: B3 chain with A54D, R64A, A65Y, E73V
notes: as for B3
Kd [1]: 21 nM
koff [1]: 0.0054 s⁻¹
kon [1]: 250000 M⁻¹ s⁻¹

B27: L116A-A93D-PNT domain (domain or fragment, human, UniProt P41212 40-125, looked up)
chain: B3 chain with A54D, A65Y, E73V, L77A
notes: as for B16
Kd [1]: 3.3 nM
koff [1]: 0.00076 s⁻¹
kon [1]: 230000 M⁻¹ s⁻¹

B28: K92A-V112E-PNT domain (domain or fragment, human, UniProt P41212 40-125, looked up)
chain: B3 chain with K53A, A65Y
notes: as for B3
Kd [2]: 62 nM
koff [2]: 0.022 s⁻¹
kon [2]: 350000 M⁻¹ s⁻¹

B29: L97A-V112E-PNT domain (domain or fragment, human, UniProt P41212 40-125, looked up)
chain: B3 chain with L58A, A65Y
notes: as for B3
Kd [2]: 700 nM
koff [2]: 0.068 s⁻¹
kon [2]: 98000 M⁻¹ s⁻¹

B30: L79A-A93D-PNT domain (domain or fragment, human, UniProt P41212 40-125, looked up)
chain: B3 chain with L40A, A54D, A65Y, E73V
notes: as for B3
Kd [1]: 200 nM
koff [1]: 0.0016 s⁻¹
kon [1]: 8100 M⁻¹ s⁻¹

B33: D111A-A93D-PNT domain (domain or fragment, human, UniProt P41212 40-125, looked up)
chain: B3 chain with A54D, A65Y, D72A, E73V
notes: as for B3
Kd [1]: 420 nM
koff [1]: 0.0014 s⁻¹
kon [1]: 3300 M⁻¹ s⁻¹

B34: M89A-V112E-PNT domain (domain or fragment, human, UniProt P41212 40-125, looked up)
chain: B3 chain with M50A, A65Y
notes: as for B3
Kd [2]: 340 nM
koff [2]: 0.033 s⁻¹
kon [2]: 97000 M⁻¹ s⁻¹
